Experimental data published in patent publication US20240132578A1.

Legend:
Experiment in all cases: cell-based or functional assay
HIV-1 NL43 Env (HIV-1) = molecular target: HIV-1 NL43 Env (HIV-1)
[1] = molecular target: HIV-1 JR-CSF Env P313A (HIV-1 (isolate JR-CSF, clade B)) (UniProt P20871)
[2] = molecular target: HIV-1 envelope glycoprotein (Env) of isolate TRO.11, on pseudovirus (HIV-1)
[3] = molecular target: HIV-1 envelope glycoprotein (Env) of isolate THRO.18, on pseudovirus (HIV-1)
[4] = molecular target: HIV-1 Env of isolate MGRM-AG-013 (pseudovirus) (HIV-1)
[5] = molecular target: HIV-1 92UG024 Env (HIV-1)
[6] = molecular target: HIV-1 MGRM-C-026 Env (HIV-1)
[7] = molecular target: HIV-1 MGRM-D-018 envelope protein (Env) on pseudovirus (HIV-1)
[8] = molecular target: HIV-1 92UG024 envelope protein (Env) on pseudovirus (HIV-1)
[9] = molecular target: HIV-1 envelope glycoprotein (Env) of isolate 92WR024, subtype A (HIV-1)
[10] = molecular target: HIV-1 Env of isolate MGRM-F1-017 (pseudovirus) (HIV-1)
[11] = molecular target: HIV-1 Env of isolate MG RM-A-013 (pseudovirus) (HIV-1)
[12] = molecular target: HIV-1 Env of isolate MGRM-G-001 (subtype G) (HIV-1)
[13] = molecular target: HIV-1 Env of isolate 92UG024 (HIV-1)
[14] = molecular target: HIV-1 Env of isolate 94 KE 105 (pseudovirus) (HIV-1)
[15] = molecular target: HIV-1 Env of pseudovirus isolate MGRM-Chronic-B-002 (clade B) (HIV-1)
[16] = molecular target: HIV-1 Env of isolate MG RM-A-012 (pseudovirus) (HIV-1)
[17] = molecular target: HIV-1 Env of isolate MGRM-G-011 (subtype G) (HIV-1)
[18] = molecular target: HIV-1 Env of isolate MGRM-G-028 (subtype G) (HIV-1)
[19] = molecular target: HIV-1 Env of isolate MGRM-D-013 (pseudovirus) (HIV-1)
[20] = molecular target: HIV-1 Env of pseudovirus isolate MGRM-C-010 (clade C) (HIV-1)
[21] = molecular target: HIV-1 Env of isolate MGRM-AE-001 (subtype AE) (HIV-1)
[22] = molecular target: HIV-1 Env of pseudovirus isolate MGRM-C-022 (clade C) (HIV-1)
[23] = molecular target: HIV-1 Env of isolate 92UG024 (pseudovirus) (HIV-1)
[24] = molecular target: HIV-1 Env of isolate MGRM-A-010 (subtype A) (HIV-1)
[25] = molecular target: HIV-1 Env of isolate MGRM-D-005 (pseudovirus) (HIV-1)
[26] = molecular target: HIV-1 Env of isolate MGRM-F1-020 (HIV-1)
[27] = molecular target: HIV-1 Env of isolate MGRM-D-021 (pseudovirus) (HIV-1)
[28] = molecular target: HIV-1 Env of isolate MGRM-D-002 (pseudovirus) (HIV-1)
[29] = molecular target: HIV-1 Env of isolate MGRM-D-018 (pseudovirus) (HIV-1)
[30] = molecular target: HIV-1 Env of isolate MGRM-D-026 (HIV-1)
[31] = molecular target: HIV-1 Env of isolate MGRM-F1-018 (HIV-1)
[32] = molecular target: HIV-1 Env of pseudovirus isolate MGRM-C-025 (clade C) (HIV-1)
[33] = molecular target: HIV-1 envelope glycoprotein (Env) of isolate MG RM-AG-002 (HIV-1)
[34] = molecular target: HIV-1 envelope glycoprotein (Env) of isolate MG RM-AG-001 (HIV-1)

Chain of 4995_E20 (PGT-142) (antibody) (VH): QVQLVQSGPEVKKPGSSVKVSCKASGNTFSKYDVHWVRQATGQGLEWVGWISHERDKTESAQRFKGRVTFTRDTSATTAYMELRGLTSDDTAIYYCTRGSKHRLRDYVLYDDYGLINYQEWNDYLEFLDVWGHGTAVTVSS
Chain of 4995_E20 (PGT-142) (antibody) (VL): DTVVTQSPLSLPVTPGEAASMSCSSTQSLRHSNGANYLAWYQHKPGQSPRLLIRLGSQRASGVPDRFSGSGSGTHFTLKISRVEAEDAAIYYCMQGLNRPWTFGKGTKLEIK
Chain of 4995_P16 (PGT-145) (antibody) (VH): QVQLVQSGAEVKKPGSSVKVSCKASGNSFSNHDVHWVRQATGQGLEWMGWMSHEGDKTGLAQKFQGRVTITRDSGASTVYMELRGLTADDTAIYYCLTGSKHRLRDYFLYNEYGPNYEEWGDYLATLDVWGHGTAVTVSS
Chain of 4995_P16 (PGT-145) (antibody) (VL): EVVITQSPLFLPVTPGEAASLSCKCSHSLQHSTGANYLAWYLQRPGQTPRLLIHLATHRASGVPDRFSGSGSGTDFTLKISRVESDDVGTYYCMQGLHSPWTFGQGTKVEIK
Chain of 4980_N08 (PGT-143) (antibody) (VH): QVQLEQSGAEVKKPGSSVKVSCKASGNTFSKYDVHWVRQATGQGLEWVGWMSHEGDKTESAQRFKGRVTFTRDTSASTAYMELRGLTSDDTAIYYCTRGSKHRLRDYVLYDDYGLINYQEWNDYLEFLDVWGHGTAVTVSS
Chain of 4980_N08 (PGT-143) (antibody) (VL): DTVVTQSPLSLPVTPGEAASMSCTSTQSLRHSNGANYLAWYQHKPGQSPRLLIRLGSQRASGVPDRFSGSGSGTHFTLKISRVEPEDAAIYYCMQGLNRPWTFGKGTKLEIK
Chain of 4970_K22 (PGT-144) (antibody) (VH): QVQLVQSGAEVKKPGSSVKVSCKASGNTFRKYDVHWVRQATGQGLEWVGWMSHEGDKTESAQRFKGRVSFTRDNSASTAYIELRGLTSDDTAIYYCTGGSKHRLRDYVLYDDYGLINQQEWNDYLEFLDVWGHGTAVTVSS
Chain of 4970_K22 (PGT-144) (antibody) (VL): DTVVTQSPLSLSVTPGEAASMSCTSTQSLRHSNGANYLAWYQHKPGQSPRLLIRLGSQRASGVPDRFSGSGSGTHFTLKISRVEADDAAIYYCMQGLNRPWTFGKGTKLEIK
Chain of 4993_K13 (PGT-141) (antibody) (VH): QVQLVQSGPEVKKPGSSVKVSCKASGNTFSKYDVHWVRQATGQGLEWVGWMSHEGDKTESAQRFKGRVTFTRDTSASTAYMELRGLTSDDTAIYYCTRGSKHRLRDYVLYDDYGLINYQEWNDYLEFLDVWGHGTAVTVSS

| Substance | IC50, pseudovirus neutralization (HIV-1 NL43 Env (HIV-1)) [µg/mL] | Fold IC50 increase relative to wild-type [1] [fold] | IC50, pseudovirus neutralization [2] [µg/mL] | IC50, pseudovirus neutralization [3] [µg/mL] | IC50 (µg/mL), pseudovirus neutralization [4] [µg/mL] | IC50, pseudovirus neutralization [5] [µg/mL] | IC50, pseudovirus neutralization [6] [µg/mL] | IC50 (ug/mL), pseudovirus neutralization [7] [µg/mL] | IC50 (ug/mL), pseudovirus neutralization [8] [µg/mL] | IC50, pseudovirus neutralization [9] [µg/mL] | IC50 (µg/mL), pseudovirus neutralization [10] [µg/mL] | IC50 (µg/mL), single-round pseudovirus neutralization [11] [µg/mL] | IC50 (µg/mL), pseudovirus neutralization [12] [µg/mL] | IC50 (µg/mL), pseudovirus neutralization [13] [µg/mL] | IC50 (µg/mL), single-round pseudovirus neutralization [14] [µg/mL] | IC50, pseudovirus neutralization [15] [µg/mL] | IC50 (µg/mL), single-round pseudovirus neutralization [16] [µg/mL] | IC50 (µg/mL), pseudovirus neutralization [17] [µg/mL] | IC50 (µg/mL), pseudovirus neutralization [18] [µg/mL] | also measured |
| --- | --- | --- | --- | --- | --- | --- | --- | --- | --- | --- | --- | --- | --- | --- | --- | --- | --- | --- | --- | --- |
| 4858_P08 (PGT-123) (antibody) | > 10 | 0.2 | 0.008 | > 50 | 3.37 | > 10 | 0.0031 | 0.0047 | > 10 | > 50 | > 50 | – | – | – | – | – | – | – | – | – |
| 4970_K22 (PGT-144) (antibody) | – | – | – | – | – | – | – | – | – | – | – | > 50 | > 50 | > 50 | 0.29 | > 50 | > 50 | 1.58 | > 50 | – |
| 4980_N08 (PGT-143) (antibody) | – | – | – | – | – | – | – | – | – | – | – | 9.24 | 0.423 | > 50 | 0.368 | > 50 | > 50 | 0.074 | 43 | – |
| 4993_K13 (PGT-141) (antibody) | – | – | – | – | – | – | – | – | – | – | – | 9.86 | 0.392 | > 50 | 0.204 | > 50 | > 50 | 0.086 | 24.9 | – |
| 4995_E20 (PGT-142) (antibody) | – | – | – | – | – | – | – | – | – | – | – | 3.77 | 0.362 | > 50 | 0.19 | > 50 | > 50 | 0.046 | 30.3 | – |
| 4995_P16 (PGT-145) (antibody) | – | – | – | – | – | – | – | – | – | – | – | 1.76 | 0.028 | 1.6 | 1.32 | 3.67 | 0.23 | 0.028 | 0.046 | – |
| 5123_A06 (PGT-125) (antibody) | > 10 | 0.3 | 0.111 | > 50 | 0.004 | > 10 | 0.0106 | 0.0382 | > 10 | 35.5 | > 50 | – | – | – | – | – | – | – | – | – |
| 5136_H01 (PGT-131) (antibody) | – | 0.52 | – | – | – | – | – | – | – | – | – | – | – | – | – | – | – | – | – | IC50 (µg/mL), pseudovirus neutralization [19]: 4.14 µg/mL; IC50, pseudovirus neutralization [20]: > 50 µg/mL; IC50, pseudovirus neutralization [21]: 4.8 µg/mL; IC50, pseudovirus neutralization [22]: 0.78 µg/mL; IC50 (µg/mL), pseudovirus neutralization [23]: > 50 µg/mL; IC50, pseudovirus neutralization [24]: 0.01 µg/mL; IC50 (µg/mL), pseudovirus neutralization [25]: > 50 µg/mL; IC50 (µg/mL), pseudovirus neutralization [26]: > 50 µg/mL; IC50 (µg/mL), pseudovirus neutralization [27]: 0.106 µg/mL; IC50 (µg/mL), pseudovirus neutralization [28]: 11.2 µg/mL; IC50 (µg/mL), pseudovirus neutralization [29]: 0.148 µg/mL; IC50 (µg/mL), pseudovirus neutralization [30]: > 50 µg/mL; IC50 (µg/mL), pseudovirus neutralization [31]: > 50 µg/mL; IC50, pseudovirus neutralization [32]: > 50 µg/mL |
| 5141_B17 (PGT-126) (antibody) | > 10 | 0.4 | 0.041 | > 50 | 0.008 | > 10 | 0.0076 | 0.0093 | > 10 | 42 | > 50 | – | – | – | – | – | – | – | – | – |
| 5145_B14 (PGT-127) (antibody) | – | 1.3 | 0.079 | > 50 | 0.018 | – | – | – | – | > 50 | > 50 | – | – | – | – | – | – | – | – | – |
| 5147_N06 (PGT-130) (antibody) | > 10 | 0.3 | – | – | – | > 10 | 0.0173 | 0.0378 | > 10 | – | – | – | – | – | – | – | – | – | – | IC50 (µg/mL), pseudovirus neutralization [19]: 0.429 µg/mL; IC50, pseudovirus neutralization [20]: > 50 µg/mL; IC50, pseudovirus neutralization [21]: 1 µg/mL; IC50, pseudovirus neutralization [22]: 0.127 µg/mL; IC50 (µg/mL), pseudovirus neutralization [23]: > 50 µg/mL; IC50, pseudovirus neutralization [24]: 0.005 µg/mL; IC50 (µg/mL), pseudovirus neutralization [25]: > 50 µg/mL; IC50 (µg/mL), pseudovirus neutralization [26]: 9.73 µg/mL; IC50 (µg/mL), pseudovirus neutralization [27]: 0.156 µg/mL; IC50 (µg/mL), pseudovirus neutralization [28]: 0.869 µg/mL; IC50 (µg/mL), pseudovirus neutralization [29]: 0.049 µg/mL; IC50 (µg/mL), pseudovirus neutralization [30]: > 50 µg/mL; IC50 (µg/mL), pseudovirus neutralization [31]: > 50 µg/mL; IC50, pseudovirus neutralization [32]: > 50 µg/mL |
| 5343_B08 (PGT-135) (antibody) | – | – | – | – | – | – | – | 0.0433 | 0.0139 | – | – | – | – | – | – | – | – | – | – | IC50 (µg/mL), pseudovirus neutralization [19]: > 50 µg/mL; IC50, pseudovirus neutralization [20]: > 50 µg/mL; IC50, pseudovirus neutralization [21]: > 50 µg/mL; IC50, pseudovirus neutralization [22]: > 50 µg/mL; IC50 (µg/mL), pseudovirus neutralization [23]: 0.01 µg/mL; IC50, pseudovirus neutralization [24]: > 50 µg/mL; IC50 (µg/mL), pseudovirus neutralization [25]: > 50 µg/mL; IC50 (µg/mL), pseudovirus neutralization [26]: 0.168 µg/mL; IC50 (µg/mL), pseudovirus neutralization [27]: > 50 µg/mL; IC50 (µg/mL), pseudovirus neutralization [28]: > 50 µg/mL; IC50 (µg/mL), pseudovirus neutralization [29]: 0.039 µg/mL; IC50 (µg/mL), pseudovirus neutralization [30]: > 50 µg/mL; IC50 (µg/mL), pseudovirus neutralization [31]: > 50 µg/mL; IC50, pseudovirus neutralization [32]: > 50 µg/mL |
| VRC01 (antibody) | – | – | – | – | – | – | – | – | – | – | – | 0.152 | 0.0371 | 0.576 | 0.499 | 0.117 | > 50 | 0.065 | 0.164 | IC50 [33]: 0.95 µg/mL; IC50 [34]: 0.228 µg/mL |
